Measured values as given in the supplement of paper PMC9732359.
± gives the uncertainty stated by the source.

Experiment: protein stability index of a GFP-peptide fusion (yeast GPS) (PSI 1-4); higher = more stable; sorted into four equal gates, so the index is relative within each strain
Procedure, shortened: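 Mid-log yeast cultures in leucine-free medium, carrying a pooled plasmid library, were sorted into four equal gates by their GFP/Cherry fluorescence ratio. Each plasmid expressed Cherry along with GFP fused upstream of a tiled 17-residue yeast protein peptide. Plasmids recovered from each gate were PCR-amplified and Illumina-sequenced, with reads assigned to strains by barcodes. The protein stability index was obtained by summing each gate's read frequency weighted by its gate number.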

Sequence | protein stability index (doa10∆) | protein stability index (pdr5∆) | protein stability index (san1∆) | protein stability index (ubr1∆)
KGLQIYQSSVQEPFLNS [PRP8] | 2.89 ± 0.05 | 2.94 ± 0.044 | 2.76 ± 0.048 | 2.83 ± 0.04
KGLTYLHLDYNFNLKPT [PRP8] | 2.19 ± 0.032 | 2.12 ± 0.035 | 2.05 ± 0.05 | 2.22 ± 0.03
KGRFAVHRITDEEASYK [RPS4A] | 3.13 ± 0.075 | 3.2 ± 0.091 | 3.35 ± 0.061 | 3.33 ± 0.07
KGSRKSSKAATPDTKNF [SNF12] | 3 ± 0.063 | 2.87 ± 0.052 | 3 ± 0.058 | 2.98 ± 0.042
KGSVAAKTFLEKRWNDE [PRE8] | 2.38 ± 0.18 | 1.28 ± 0.17 |  | 
KGTGEESNDRINKIVEI [YGR119C/NUP57] | 3.66 ± 0.18 | 3.18 ± 0.16 | 2.93 ± 0.17 | 2.89 ± 0.15
KGTNGKKALKVRTSATF [RPL25] | 3.15 ± 0.13 | 3.03 ± 0.12 | 3.06 ± 0.13 | 3.3 ± 0.068
KGTVFQFEIPISDDDDS [POP4] | 3.3 ± 0.17 | 2.47 ± 0.15 | 2.29 ± 0.15 | 3.13 ± 0.042
KHEDLSLEQRQEVTKFA [RPN4] | 2.85 ± 0.15 | 3.05 ± 0.23 | 2.84 ± 0.1 | 
KHIKNLEDDSLLSYPIK [RPN12] | 2.9 ± 0.047 | 2.44 ± 0.033 | 2.56 ± 0.045 | 2.617 ± 0.026
KICRGRMNTIITHPGKM [SIR4] | 3.36 ± 0.28 |  | 3.23 ± 0.16 | 
KICSSEMINEQKLPQYI [RGR1] | 3.02 ± 0.11 | 2.9 ± 0.13 | 3.01 ± 0.15 | 2.98 ± 0.1
KIELIKNNLLIPDLSIQ [RPN12] | 2.75 ± 0.055 | 2.23 ± 0.042 | 2.66 ± 0.046 | 2.06 ± 0.036
KIENSVQIGAEIILDFL [CSI1] | 2.73 ± 0.24 | 2.83 ± 0.16 | 2.38 ± 0.12 | 2.61 ± 0.11
KIHSILPVMESLDSCTA [YJR042W/NUP85] | 2.24 ± 0.09 | 2.23 ± 0.079 | 2 ± 0.13 | 2.24 ± 0.068
KIIALQPNEISFKYLSN [RGR1] | 2.43 ± 0.12 | 2.38 ± 0.12 |  | 2.48 ± 0.098
KIKLLTQATSEDGTSAS [RPC19] | 2.61 ± 0.065 | 2.85 ± 0.079 | 2.89 ± 0.062 | 3.11 ± 0.078
KIPSASIWGNGYSGYGN [SNF5] | 3.25 ± 0.1 | 3.27 ± 0.11 | 3.42 ± 0.095 | 3.3 ± 0.05
KIQASDVNIIGKDRIAI [RPO31] | 2.82 ± 0.11 | 3.05 ± 0.098 | 2.87 ± 0.087 | 3.35 ± 0.081
KIQQQQPGYADLEHKED [QCR6] | 2.51 ± 0.062 | 2.71 ± 0.071 | 2.69 ± 0.069 | 2.69 ± 0.044
KIRMLTQAAEFLSPYIS [IRR1] | 1.84 ± 0.04 | 2.46 ± 0.047 | 1.74 ± 0.074 | 2.23 ± 0.045
KITTSTEDQKVTTNINW [SRP68] | 3.13 ± 0.078 | 3.13 ± 0.072 | 3.21 ± 0.068 | 3.11 ± 0.054
KIVVLSRTGPVFDLCWN [RRP43] | 2.07 ± 0.057 | 2.2 ± 0.048 | 2.91 ± 0.066 | 2.39 ± 0.035
KIYDAFPQTAMLRRHAA [DIS3] | 2.41 ± 0.086 | 2.71 ± 0.079 | 2.58 ± 0.12 | 2.4 ± 0.061
KKASDLVDTPSNNTAAT [NUT1] | 3.28 ± 0.1 | 3.17 ± 0.074 | 3.11 ± 0.046 | 3.21 ± 0.06
KKCLKLAYENKITDKED [POP4] | 2.698 ± 0.022 | 2.785 ± 0.027 | 2.797 ± 0.02 | 3.032 ± 0.025
KKIRFLQLIIFLRTQFL [RGR1] | 1.53 ± 0.057 | 1.27 ± 0.041 | 1.19 ± 0.15 | 1.21 ± 0.073

Sequence | protein stability index (doa10∆) | protein stability index (pdr5∆) | protein stability index (san1∆) | protein stability index (ubr1∆)
KKIRNVPVRDGVTIEFS [RPL9A] | 2.59 ± 0.11 | 2.55 ± 0.15 | 2.43 ± 0.16 | 3.21 ± 0.092
KKLATRPKCGDCGSALQ [RPL34A] | 2.52 ± 0.12 | 2.88 ± 0.16 | 2.31 ± 0.16 | 2.89 ± 0.12
KKLELPKYIDELKTRDA [SWP82] | 3.03 ± 0.097 | 3.39 ± 0.092 | 2.78 ± 0.077 | 3.48 ± 0.071
KKLFQKKENLTRDETVS [YML103C/NUP188] | 2.65 ± 0.23 | 3.29 ± 0.12 | 3.01 ± 0.08 | 3.3 ± 0.088
KKLKAVRIIKHTLDIIN [RPS5] | 2 ± 0.066 | 2.01 ± 0.048 | 1.91 ± 0.057 | 2.36 ± 0.051
KKMGVPYAIVKGKARLG [RPL8A] | 1.87 ± 0.17 | 2.09 ± 0.16 | 2.12 ± 0.17 | 
KKNDEVSKPAFSFGAKA [YJL041W/NSP1] | 3.12 ± 0.14 | 3.02 ± 0.15 | 2.96 ± 0.094 | 3.07 ± 0.099
KKQQAALTNELNELKAI [YIL149C/MLP2] | 1.42 ± 0.052 | 1.86 ± 0.07 | 1.83 ± 0.092 | 1.55 ± 0.051
KKRAPRAVKEIKKFAKL [RPL31A] |  | 3.15 ± 0.21 | 2.86 ± 0.16 | 
KKRMNSNQERCHDEGND [RRI1] | 3.24 ± 0.064 | 3.01 ± 0.068 | 3.06 ± 0.071 | 3.13 ± 0.061
KKRSQAKMNAKTDFAKI [RPC82] | 3.42 ± 0.094 | 3.23 ± 0.12 | 3.22 ± 0.076 | 3.37 ± 0.059
KKTATEPKQKANAVQNN [SRP21] | 3.06 ± 0.086 | 3.19 ± 0.082 |  | 3.24 ± 0.12
KKTCSSCGYPAAKTRSY [RPL37A] | 2.25 ± 0.27 | 3.17 ± 0.11 | 2.69 ± 0.093 | 3.27 ± 0.11
KKTCSSCGYPSAKTRSH [RPL37B] | 2.74 ± 0.066 | 2.51 ± 0.044 | 2.63 ± 0.084 | 1.99 ± 0.04
KKVKLAVLSYYKVDAEG [RPS31] | 1.62 ± 0.084 | 2.32 ± 0.082 | 2.52 ± 0.074 | 1.95 ± 0.068
KLALAENDTNMNETLNL [SMC4] | 3.15 ± 0.13 | 3.15 ± 0.077 | 3.04 ± 0.1 | 2.85 ± 0.089
KLDSKKTVPFQVNQLQR [SSN3] | 3.15 ± 0.063 | 3.28 ± 0.042 | 3.19 ± 0.046 | 3.12 ± 0.049
KLFNKWSFEEVEVKDAS [RPS5] | 2.17 ± 0.087 | 1.77 ± 0.072 | 1.4 ± 0.15 | 1.67 ± 0.06
KLHMGTDDVRLAPELNQ [RPL31A] | 3.11 ± 0.12 | 3.25 ± 0.083 | 3.13 ± 0.083 | 3.09 ± 0.052
KLIPKLYRYRFDPFQAV [ECM29] | 2.86 ± 0.14 | 2.77 ± 0.14 | 2.71 ± 0.11 | 2.8 ± 0.063
KLKEYLDLVARTATLSN [YDL116W/NUP84] | 2.63 ± 0.23 | 2.88 ± 0.16 | 2.99 ± 0.1 | 2.74 ± 0.15
KLKFFPSGEALISSSQD [RPN14] | 2.92 ± 0.23 |  |  | 
KLLASTEENKANTNSVT [YIL149C/MLP2] | 3.32 ± 0.083 | 3.24 ± 0.066 | 3.25 ± 0.056 | 3.32 ± 0.036
KLLLLNTSAIQETASPL [YIL149C/MLP2] | 2.33 ± 0.13 | 2.42 ± 0.21 |  | 2.56 ± 0.088
KLRKIAISKKNKSLKYV [LIN1] | 1.65 ± 0.062 | 1.33 ± 0.059 | 1.23 ± 0.14 | 1.15 ± 0.048
KLTGDDQKFGVPVRSFK [ASC1] | 2.36 ± 0.16 | 3.16 ± 0.12 | 2.77 ± 0.1 | 3 ± 0.1
KLTRELEKKFPDRHVIF [RPS7B] | 2.75 ± 0.058 | 2.94 ± 0.049 | 2.99 ± 0.04 | 3.14 ± 0.033
